No end group written: not given here.
Experiments:
[1] = biological target: T1, TRBC2 peptide (biotinylated) (human, also: biotinylated (site not given here)); assay: TRF assay, scFv on biotin-peptide/neutravidin plate
T1 construct: In the monoclonal screen: biotinylated, 0.5 ug/ml on neutravidin-coated plates; In the polyclonal phage ELISA also presented as BSA or OA conjugate of the C-terminal-cysteine form; also called Bio-TRBC2; biotinylated TRBC2
T1 peptide: VLEDLKNVFPPEVAV
Method: (§1) The scFv populations from round-2 and round-3 selection outputs were sub-cloned into the pSANG10-3F expression vector and transformed into E. coli BL21 (DE3) cells. 1128 individual transformants (564 clones/TRBC peptide) were picked into 12×96 well culture plates (94 clones/plate) and antibody expression was induced using autoinduction media. Recombinant monoclonal antibodies secreted into culture supernatant after overnight induction were tested for binding to biotinylated TRBC1 and TRBC2 immobilised on neutravidin coated Nunc Maxisorp™ 96 well plates.

[2] = biological target: T2, TRBC1 peptide (biotinylated) (human, also: biotinylated (site not given here)); assay: as above
T2 construct: In the monoclonal screen: biotinylated, 0.5 ug/ml on neutravidin-coated plates; In the polyclonal phage ELISA also presented as BSA or OA conjugate of the C-terminal-cysteine form; also called Bio-TRBC1; biotinylated TRBC1
T2 peptide: VLEDLNKVFPPEVAV
Method: as §1

B1: CP_03_D04 (scFv, not shown: small tags and cut ends)
scFv: EVQLVESGGGVVQPGRSLRLSCAASGFTFSSYAMHWVRQAPGKGLEWVAVISYDGSNKYYADSVKGRFTISRDNSKNTLYLQMNSLRAEDTAVYYCARGGFTVPGGAFDIWGQGTLVTVSSGGGGSGGGGSGGGASNFMLTQPHSVSDSPGKTVTISCTRSSGRIGSNFVQWYQQRPGSSPTTVIYEDDQRPSGVPARFSGSIDSSSNSASLTISGLTTADEAGYYCQSYDASNVIFGGGTKLTVLGQPAA
notes: scFv from pSANG10-3F (His6, tri-FLAG), culture supernatant
B1 gave a TRBC2 binding [1] of 143000 TRF units.

B2: CP_03_F09 (scFv, not shown: small tags and cut ends)
scFv: QMQLVQSGAEVKKPGASVKVSCKASGYTFASYYMHWVRQAPGQGLEWMGIINPSGGSTSYAQKFQGRVTMTRDTSTSTVYMELSRLRSDDTAVYYCASNRGGSYKSVGMDVWGQGTTVTVSSGGGGSGGGGSGGGASNFMLTQPQSVSESPGKTVTISCTRSSGNFASKYVQWYQQRPGSSPTTVIYENYQRPSGVPDRFSGSIDSSSNSATLTISGLKTEDEADYYCQSYDEVSVVFGGGTQLTVLGQPAA
notes: as for B1
For B2, the TRBC2 binding [1] was 132000 TRF units.

B3: CP_01_C11 (scFv, not shown: small tags and cut ends)
scFv: QVQLVESGAEVKKPGASVKVSCKASGYTFTGYYMHWVRQAPGQGLEWMGRINPNSGGTNYAQKFQGRVTMTRDTSISTAYMELSRLRSDDTAVYYCASGGAGWNWGQGTMVTVSSGGGGSGGGGSGGGASNFMLTQPHSVSESPGKTATISCTRSSGSIASNYVQWYQQRPGSAPTTVIYEDNQRPFGVPDRFSGSIDSSSNSASLTISGLKTEDEADYYCQSHDSSNVVFGGGTQLTVLGQPAA
notes: as for B1
B3 was tested, and the TRBC1 binding [2] was 349000 TRF units.

B4: CP_01_D10 (scFv, not shown: small tags and cut ends)
scFv: QVQLVESGGGLVQPGRSLRLSCAASGFTFSSYAMHWVRQAPGKGLEWVAVISYDGSSKYYADSVKGRFTISRDNSKNTLYLQMNSLRAEDTAVYYCAKGGGSFGAFDIWGQGTLVTVSSGGGGSGGGGSGGGASDIQMTQSPSSLSASVGDRVTITCRASQSISRYLNWYQQKPGKAPNLLIYAASSLQSGVPSRFSGSGSGTDFTLTISSLQPEDFATYYCQQYNSYPLTFGGGTKLEIKRTAAA
notes: as for B1
In the case of B4, the TRBC1 binding [2] is reported as 371000 TRF units.

B5: CP_03_C12 (scFv, not shown: small tags and cut ends)
scFv: EVQLVQSGAEVKKPGASVKVSCKASGYTFTGYYMHWVRQAPGQGLEWMGWINPNSGGTNYAQKFQGRVTMTRDTSISTAYMELSSLRSEDTAVYYCARDTGPIDYWGQGTMVTVSSGGGGSGGGGSGGGASDIVMTQTPLSLSVTPGQPASISCKSSQSLLHSDGKTYLYWYLQKPGQPPQLLVYEVSNRFSGVPDKFSGSGSGTDFTLKISRVEAEDVGVYYCMQGIQLPPTFGGGTKVDIKRTAAA
notes: as for B1
B5 showed a TRBC2 binding [1] of 167000 TRF units.

B6: CP_03_D05 (scFv, not shown: small tags and cut ends)
scFv: QVQLVESGAEVKKPGASVKVSCKASGYTFTGYYMHWVRQAPGQGLEWMGRINPNSGGTNYAQKFQGRVTMTRDTSISTAYMELSRLRSDDTAVYYCASPRGRGSAFDIWGQGTLVTVSSGGGGSGGGGSGGGASSYELTQPPSVSVSPGQTATISCSGDQLGGKYGHWYQKKPGQSPVLVLYQDRKRPAGIPERFSGSSSGNTITLTISGTQAVDEADYYCQAWDTNLGGVFGGGTKVTVLGQPAA
notes: as for B1
For B6, the TRBC2 binding [1] was 213000 TRF units.

B7: CP_03_G09 (scFv, not shown: small tags and cut ends)
scFv: QVQLQQSGPGLVKPSQTLSLTCAISGDSVSSNSAAWNWIRQSPSRGLEWLGRTYYRSKWYNDYAVSVKSRITINPDTSKNQFSLQLNSVTPEDTAVYYCARDQWLANYYYYGMDVWGQGTLVTVSSGGGGSGGGGSGGGASSYELTQPLSVSVALGQTARITCGGNNIGSKNVHWYQQKPGQAPVLVIYRDNNRPSGIPERFSGSNSGNTATLTISKAQAGDEADYYCQVWDSNSWVFGGGTKLTVLGQPAA
notes: as for B1
Work on B7 yielded a TRBC2 binding [1] of 139000 TRF units.

B8: CP_03_D09 (scFv, not shown: small tags and cut ends)
scFv: EVQLVQSGAEVKKPGSSVKVSCEASGYTFTSYAISWVRQAPGQGLEWMGWMNPNSGNTGYAQKFQGRVTMTRNTSISTAYMELSSLRSEDTAVYYCARVSSYYGMDVWGQGTLVTVSSGGGGSGGGGSGGGASNFMLTQPLSVSESPGKTVTISCTRSSGSIASNYVQWYQQRPGSAPTTVIYEDNQRPSGVPDRFSGSIDSSSNSASLTISGLKTEDEADYYCQSYNSSNHWVFGGGTKVTVLGQPAA
notes: as for B1
B8 was tested, and the TRBC2 binding [1] was 129000 TRF units.

B9: CP_01_D12 (scFv, not shown: small tags and cut ends)
scFv: EVQLLESGGGVVQPGRSLRLSCAASGFTFSSYAMHWVRQAPGKGLEWVAVISYDGSNKYYADSVKGRFTISRDNSKNTLYLQMNSLRAEDTAVYYCAKGGDTYGFLDNWGQGTMVTVSSGGGGSGGGGSGGGASDIQMTQSPSTLSASVGDRVTITCRASQSISSWLAWYQQKPGKAPKLLIYKASSLESGVPSRFSGSGSGTDFTLTISSLQPEDFATYYCQQFNAYPLTFGGGTKVEIKRTAAA
notes: as for B1
B9 showed a TRBC1 binding [2] of 393000 TRF units.

B10: CP_03_E05 (scFv, not shown: small tags and cut ends)
scFv: EVQLVESGGGVVQPGGSLRLSCAASGFTFSSYAMSWVRQAPGKGLEWVSAISGSGGSTYYADSVKGRFSISRDNSKNTLYLQMNSLRAEDTAVYYCARTRSSGAFDIWGQGTLVTVSSGGGGSGGGGSGGGASNFMLTQPHSVSESPGKTVTISCTRSSGSIASKYVQWYQQRPGSSPTTVIYEDNQRPSGVPDRFSGSIDTSSNSASLTISGLRTEDEADYYCHSYDSNNHSVFGGGTKVTVLGQPAA
notes: as for B1
With B10 the TRBC2 binding [1] was 217000 TRF units.

B11: CP_01_F06 (scFv, not shown: small tags and cut ends)
scFv: EVQLLESGGGVVQPGRSLRLSCAASGFTFSSYGMHWVRQAPGKGLEWVAVISYDGSNKYYADSVKGRFTISRDNSKNTLYLQMNSLRAEDTAVYYCAKDDGAMRYWGQGTMVTVSSGGGGSGGGGSGGGASDIQMTQSPDSLAVSLGERATINCKSSQSVLYSSNNKNYLAWYQQKPGQPPKLLIYWASTRESGVPDRFSGSGSGTDFTLTISSLQAEDVAVYYCQQYYDSPYTFGQGTKVDIKRTAAA
notes: as for B1
B11 was tested, and the TRBC1 binding [2] was 325000 TRF units.

B12: CP_01_E07 (scFv, not shown: small tags and cut ends)
scFv: QVQLVESGGGVVQPGRSLRLSCAASGFTFSSYGMHWVRQAPGKGLEWVAVISYDGSNKYYADSVKGRFTISRDNSKNTLYLQMNSLRAEDTAVYYCAKDLGGSGGAFDIWGQGTLVTVSSGGGGSGGGGSGGGASDIVMTQTPHSLSVTPGQPASISCKSSQSLLYSDGKTYLYWYLQKPGQPPQLLIYEVSNRFSGVPDRFSGSGSGTDFTLKISRVEAEDVGVYYCMQSIQLYTFGQGTKVDIKRTAAA
notes: as for B1
With B12 the TRBC1 binding [2] was 332000 TRF units.

B13: CP_03_G02 (scFv, not shown: small tags and cut ends)
scFv: EVQLVQSGAEVKKPGSSVKVSCKASGGTFSSYAISWVRQAPGQGLEWMGIINPSGGSTSYAQKFQGRVTMTRDTSTSIVYMELSSLRSEDTAVYYCARGVWNSGSYLGFDYWGQGTLVTVSSGGGGSGGGGSGGGASDIQMTQSPSSLSASVGDRVTITCQASQDISNYLNWYQQKPGKAPKLLIYAASSLQSGVPSRFSGSGSGTDFTLTISSLQPEDFATYYCQQSYSTPLTFGGGTKLEIKRTAAA
notes: as for B1
For B13, the TRBC2 binding [1] was 152000 TRF units.

B14: CP_01_E09 (scFv, not shown: small tags and cut ends)
scFv: QVQLVESGGGVVQPGRSLRLSCAASGFTFSSYAMHWVRQAPGKGLEWVAVISYDGSNKYYADSVKGRFTISRDNSKNTLYLQMNSLRAEDTAVYYCARAHNSSSWSFDYWGQGTLVTVSSGGGGSGGGGSGGGASDIQMTQSPSSLSASVGDRVTITCRASQSISSYLNWYQQKPGKAPKLLIYDASNLETGVPSRFSGSGSGTDFTFTISSLQPEDIATYYCQQYDNLPLTFGGGTKVDIKRTAAA
notes: as for B1
With B14 the TRBC1 binding [2] was 403000 TRF units.

B15: CP_01_C08 (scFv, not shown: small tags and cut ends)
scFv: EVQLLESGGGAVQPGRSLRLSCAASGFTFSSYAMHWVRQAPGKGLEWVAVISYDGSNKYYADSVKGRFTISRDNSKNTLYLQMNSLRAEDTAVYYCASGYSSSWYLDYWGQGTLVTVSSGGGGSGGGGSGGGASDIQMTQSPSSVSASVGDRVTITCQASQDISNYLNWYQQKPGKAPKLLIYDASNLETGVPSRFSGSGSGTDFTFTISSLQPEDIATYYCQQYDNLPLTFGGGTKVEIKRTAAA
notes: as for B1
B15 gave a TRBC1 binding [2] of 353000 TRF units.

B16: CP_01_D03 (scFv, not shown: small tags and cut ends)
scFv: QVQLVESGGGVVQPGRSLRLSCAAPGFTFSSYGMHWVRQAPGKGLEWVAVISYDGSNKYYADSVKGRFTISRDNSKNTLYLQMNSLRAEDTAVYYCARNKQYGMDVWGQGTLVTVSSGGGGSGGGGSGGGASDIVMTQSPATLSLAPGERATLSCRASQSVGSNLAWYQQKPGQAPSLLIYDASTRATGIPARFSGSGSGTDFTLTISSLQSEDIAVYYCQQYHRWPLTFGGGTKVEIKRTAAA
notes: as for B1
Work on B16 yielded a TRBC1 binding [2] of 328000 TRF units.

B17: CP_03_H06 (scFv, not shown: small tags and cut ends)
scFv: QVQLVESGGGLVKPGGSLRLSCAASGFTFSDYYMSWIRQAPGKGLEWVSYISSSGSTIYYADSVEGRFTISRDNAKNSLYLQMNSLRTEDTAVYYCARARVGGMDVWGQGTMVTVSSGGGGSGGGGSGGGASNFMLTQPHSVSESPGKTVTISCTRSSGSIASNYVQWYQQRPGSSPTTVIYEDNQRPSGVPDRFSGSIDSSSNSASLTISGLKTEDEADYYCQSFDADNLHVVFGGGTKLTVLGQPAA
notes: as for B1
Binder B17 has a TRBC2 binding [1] of 168000 TRF units.

B18: CP_03_F10 (scFv, not shown: small tags and cut ends)
scFv: EVQLVESGAEVKKPGASVKVSCKASGYTFTGYYMHWVRQAPGQGLEWMGRINPNSGGTNYAQKFQGRVTMTRDTSISTAYMELSSLRSEDTAVYYCARFGERYAFDIWGQGTLVTVSSGGGGSGGGGSGGGASQSELTQPPSASGSPGQSVTISCTGTSTDVGAFHFVSWYQHTPGKAPKLLISEVRKRASGVPDRFSGSRSGNTASLTVSGLQSEDEADYFCSAYTGSNYVFGSGTKLTVLGQPAA
notes: as for B1
B18 was tested, and the TRBC2 binding [1] was 140000 TRF units.

B19: CP_01_F02 (scFv, not shown: small tags and cut ends)
scFv: QVQLVESGGGVVQPGRPLRLSCAASGFTFSSYAMHWVRQAPGKGLEWVAVISYDGSNKYYADSVKGRFTISRDNSKNTLYLQMNSLRAEDTAVYYCARAGYSYADYWGQGTMVTVSSGGGGSGGGGSGGGASDIQMTQSPSSLSASVGDRVTITCRASQGIRNDLGWYQQKPGKAPKRLIYAASSLQSGVPSRFSGSGSGTEFTLTISSLQPEDFATYYCLQHNSYPLTFGGGTKVDIKRTAAA
notes: as for B1
For B19, the TRBC1 binding [2] was 302000 TRF units.

Source: patent US20250314655A1 (AUTOLUS, published 2025)
